Measured values reported in patent publication US20230322944A1 (published 2023).

T1: human CD122 His tagged (human, UniProt P14784 27-240)
T1 construct: also called hCD122
T1 sequence: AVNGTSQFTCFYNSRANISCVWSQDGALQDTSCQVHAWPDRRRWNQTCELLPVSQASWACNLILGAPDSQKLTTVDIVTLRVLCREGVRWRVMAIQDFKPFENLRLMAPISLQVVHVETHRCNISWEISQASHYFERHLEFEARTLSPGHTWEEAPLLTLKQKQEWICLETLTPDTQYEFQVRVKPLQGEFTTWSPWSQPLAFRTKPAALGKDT

T2: cynomolgus and/or rhesus monkey CD122 His tag (rhesus monkey, UniProt Q38J85 27-240 (cynomolgus entry))
T2 construct: also called rhesus CD122; rhCD122
T2 sequence: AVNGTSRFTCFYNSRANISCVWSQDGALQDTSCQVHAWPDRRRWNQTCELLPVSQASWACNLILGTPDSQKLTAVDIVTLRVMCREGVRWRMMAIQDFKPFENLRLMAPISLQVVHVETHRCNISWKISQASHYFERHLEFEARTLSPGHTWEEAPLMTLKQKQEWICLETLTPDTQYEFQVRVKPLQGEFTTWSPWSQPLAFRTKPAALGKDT


What was measured:
human CD122 His tagged = target: T1, human CD122 His tagged; experiment: BIACORE SPR, Fab on human CD122
Procedure: (§1) A mouse anti-human antibody (CH1 specific) was immobilized on a CMS Sensor Chip to a level of 2000 RU in acetate buffer at pH 4.5 using amine coupling following the Wizard instructions for two channels. One channel was used for background signal correction. The standard running buffer HBS-EP pH 7.4 was used. Regeneration was performed with a single injection of 10 μl of 10 mM Glycine at pH 1.5 at 20 μl/minute. IgG samples were injected for 2 minutes at 50 nM at 30 μl/min followed by and off-rate of 60 seconds. The monomeric antigen (human CD122 His tagged or cynomolgus and/or rhesus monkey CD122 His tag) was injected in two fold serial dilutions from 100 nM down to 3.1 nM, for 2 minutes at 30 μl/min followed by an off-rate of 300 seconds. The obtained sensorgrams were analyzed using the BIACORE® 3000 evaluation (BIAevaluation) software. The KD was calculated by simultaneous fitting of the association and dissociation phases to a 1:1 Langmuir binding model.

[1] = target: T2, cynomolgus and/or rhesus monkey CD122 …; experiment: BIACORE SPR, Fab on rhesus CD122
Procedure: as §1

Row | Binder | Kd (human CD122 His tagged) [nM] | Kd [1] [nM]
1 | FAB03 (Fab, V domains shown, F11VH-1 + F11VK-123; Human monovalent Fab) VH: not shown VL: DIQMTQSPSSLSASVGDRVTITCQASSSVSFMYWYQQRPGKAPRLLIYDTSNLASGVPSRFSGSGSGTSYTFTISSLQPEDIATYYCQQWDTYPLTFGQGTKVEIK | 38.6 | 20.6
2 | FAB09 (Fab, V domains shown, F11VH-13 + F11VK-123; Human monovalent Fab) VH: not shown VL: DIQMTQSPSSLSASVGDRVTITCQASSSVSFMYWYQQRPGKAPRLLIYDTSNLASGVPSRFSGSGSGTSYTFTISSLQPEDIATYYCQQWDTYPLTFGQGTKVEIK | 72.5 | 36.5
3 | FAB12 (Fab, V domains shown, F11VH-23 + F11VK-123; Human monovalent Fab) VH: EVQLLESGGGLVQPGGSLRLSCAASGFTVTSYAVHWVRQAPGKGLEWLGVIWSGGSTDYNAAFISRLTISKDNSKNTVYFQMNSLRAEDTAVYYCARAGDYNYDGFAYWGQGTLVTVSS VL: DIQMTQSPSSLSASVGDRVTITCQASSSVSFMYWYQQRPGKAPRLLIYDTSNLASGVPSRFSGSGSGTSYTFTISSLQPEDIATYYCQQWDTYPLTFGQGTKVEIK | 21.8 | 19.5
